Experimental data as given in patent publication US11572572B2, “A138T mutation-containing plant EPSPS mutant, and encoding gene and application thereof” (GEVOTO LLC, priority 2017, dated 2023).
Numbering of substitutions follows the chain as printed.

Columns and labels:
[1] = tested on: transgenic rice seedlings; assay: Glyphosate resistance of EPSPS mutants in transgenic rice sprayed with glyphosate (Example 8); assay type: in vivo, rice (Nipponbare); settings: for glyphosate resistance of transformed rice seedlings (in words): after spraying with 1× glyphosate
Source text: The glyphosate resistance of the EPSPS mutants of the above examples in transgenic rice was detected by the following method.
Plasmids of monoclonal resistant strain comprising pADV5-EPSPS of Examples 1-4 (containing the EPSPS mutant genes) were extracted in accordance with a conventional method. They were subjected to double enzymatic digestion with Pacl and BstEII to recover small fragments, and then the small fragments were ligated, using T4 DNA ligase, to a pGVP1 vector subjected to double enzymatic digestion in the same manner, to obtain a pGVP1-EPSPS vector having a structure as shown in FIG. 8.
The pGVP1-EPSPS vector was transformed into EHA105 (Agrobacterium tumefaciens) competent cells, and single clones were picked out for colony PCR detection to obtain positive strains. Then, the positive strains were inoculated into and propagated in 1 mL of a YEP medium containing 50 μg·mL^−1 kanamycin and 50 μg·mL^−1 rifampicin, and stored at −80° C. or used in subsequent experiments.
400 ul of a strain containing the target gene vector stored at −80° C. was added to a culture dish with a solid medium containing YEP+50 μg/mL rifampicin+50 μg/mL kanamycin and cultured in the dark at 28° C. for 24 hours, and then the bacterium was added to an infection medium and adjusted to OD=0.2 as an infection solution.
Disinfection and Pre-culture: seeds of mature rice (Nipponbare) were manually dehulled. Full seeds with no bacterial plaques were selected and disinfected in accordance with the following steps: the seeds were placed in a 50 ml sterile centrifuge tube and disinfected with the added 70% ethanol in water for 30 seconds, ethanol solution was poured out, and the seeds were washed once with sterile water; 10 to 20 ml of 2.6% sodium hypochlorite solution was added to soak and disinfect the seeds for 20 minutes. The sodium hypochlorite solution was poured out, and the seeds were soaked and washed with sterile water for 6 or 7 times, for 3 minutes each time.
Induction and Subculture: the seeds were placed on and blotted with sterile filter paper, and the mature embryos were placed in an induction medium, with 12 embryos per dish. After the operation was completed, the culture dishes were sealed with parafilm and underwent culturing in the dark at 30° C. for 21 to 28 days. Callus tissue was transferred to a fresh medium and continued to be cultured for about 7 to 14 days. Spherical callus tissue with a dimension of 1 to 2 mm was taken as an infection receptor.
The callus tissue was placed into a centrifuge tube or culture cup, infected in the prepared Agrobacterium suspension added thereto for 10 minutes, and shaken several times during the period; the bacterial solution was poured out, the callus tissue was taken out and placed on sterile filter paper for absorbing the bacterial solution from its surface (for about 30 minutes); the callus tissue was placed on sterile filter paper in culture dishes and cultured in the dark at 25° C. for 2 or 3 days.
Recovery Culture: the co-cultured callus tissue was inoculated on a recovery medium and cultured in the dark at 30° C. for 5 to 7 days.
Primary Screening: the callus was transferred to screening medium 1 (51) and cultured in the dark at 30° C. for 14 days.
Secondary Screening: the callus was then transferred to screening medium 2 (S2) and cultured in the dark at 30° C. for 14 days.
Primary Differentiation: the screened resistant callus tissue was transferred to a differentiation medium and cultured for about 21 days at 30° C. under exposure to light for 19 hours.
Secondary Differentiation: new young shoots were selected and moved to a fresh differentiation medium and continued to be cultured for about 21 days.
When the new seedlings grew to about 2 cm, they were moved to a rooting medium and cultured for 3 to 4 weeks at 30° C. under exposure to light (for 16/8 h). […]

[2] = tested on: double-knockout Escherichia coli strain (EDCE); assay: Growth of double-knockout E. coli (EDCE) transformed with Oryza sativa EPSPS genes in glyphosate media (Example 5); assay type: cell-based; settings: Example 5, FIG. 1
Source text: An Escherichia coli strain transformed with the Oryza sativa EPSPS mutant I-encoding gene according to Example 1 was used as Experimental Group 1 (having only the A155(138)T mutation).
An Escherichia coli strain transformed with the Oryza sativa EPSPS mutant II-encoding gene according to Example 2 was used as Experimental Group 3 (having the G111(96)A mutation and A155(138)T mutation).
An Escherichia coli strain transformed with a wild-type Oryza sativa EPSPS-encoding gene (SEQ ID NO: 14, encoding wild-type Oryza sativa EPSPS set forth in SEQ ID NO: 5) was used as a control group.
The glyphosate resistance of the Oryza sativa EPSPS mutant I-encoding gene and the encoded Oryza sativa EPSPS mutant I in Escherichia coli, and the glyphosate resistance of the Oryza sativa EPSPS mutant II-encoding gene and the encoded Oryza sativa EPSPS mutant II in Escherichia coli were verified by detecting the growth statuses of the transformed Escherichia coli in media containing different concentrations of glyphosate (0 mM, 1 mM, 2 mM, 20 mM) (media obtained by using M9 as a basal medium and then adding certain concentrations of antibiotics Spec (Spectinomycin), Gen (Gentamycin), and Amp (Ampicillin) and different concentrations of glyphosate).
Here, the Escherichia coli strain used was an double-knockout Escherichia coli strain (Escherichia coli strain DH5a from which an EPSPS gene and a C-P Lyase gene were knocked out, named EDCE, which may be prepared by a method with reference to Chinese Patent Application No. 2016103256926).
The detection was carried out by a method well known in the art, which was briefly described below. Gene encoding Oryza sativa EPSPS mutants was synthesized by a chemical synthesis method, wherein enzymatic digestion sites (Pacl and Sbfl) were introduced at both ends of the gene. The gene were enzymatically cleaved and then ligated in the presence of ligase to an expression vector (e.g., pADV5 vector having a structure as shown in FIG. 4) subjected to the same enzymatic digestion treatment, and then were transformed into the double-knockout Escherichia coli strain. After verification, positive clones were picked out and inoculated and grown in media containing glyphosate. The growth statuses were observed.

[3] = 1X dose glyphosate (1,060 g/ha), day 10 after spraying
[4] = 2X dose glyphosate (2,120 g/ha) on survivors of 1X, after another 10 days
[5] = 5X dose glyphosate (5,300 g/ha) on survivors of 2X, after additional 10 days
[6] = 20X dose glyphosate (21,200 g/ha) on survivors of 5X, after further 10 days
[7] = medium containing 1 mM glyphosate
[8] = medium containing 2 mM glyphosate
[9] = medium containing 20 mM glyphosate

B1: R0: wild-type Oryza sativa EPSPS (SEQ ID NO: 5), encoding gene SEQ ID NO: 14; control group of Example 5 (protein, listed as Oryza sativa)
chain: MASNAAAAAAKAEEIVLQPIREISGAVQLPGSKSLSNRILLLSALSEGTTVVDNLLNSEDVHYMLEALKALGLSVEADKVAKRAVVVGCGGKFPVEKDAKEEVQLFLGNAGTAMRPLTAAVTAAGGNATYVLDGVPRMRERPIGDLVVGLKQLGADVDCFLGTECPPVRVKGIGGLPGGKVKLSGSISSQYLSALLMAAPLALGDVEIEIIDKLISIPYVEMTLRLMERFGVKAEHSDSWDRFYIKGGQKYKSPGNAYVEGDASSASYFLAGAAITGGTVTVQGCGTTSLQGDVKFAEVLEMMGAKVTWTDTSVTVTGPPREPYGKKHLKAVDVNMNKMPDVAMTLAVVALFADGPTAIRDVASWRVKETERMVAIRTELTKLGASVEEGPDYCIITPPEKLNITAIDTYDDHRMAMAFSLAACADVPVTIRDPGCTRKTFPNYFDVLSTFVRN
% ++&+++ (percentage of moderately and highly glyphosate resistant plants in total plants observed) [1, 3]: 0.0%
plant number with resistance + (low glyphosate resistant) [1, 3]: 1
plant number with resistance ++ (moderately glyphosate resistant) [1, 3]: 0
plant number with resistance +++ (highly glyphosate resistant) [1, 3]: 0
% ++&+++ (percentage of moderately and highly glyphosate resistant plants in total plants observed) [1, 4]: 0.0%
plant number with resistance + (low glyphosate resistant) [1, 4]: 0
plant number with resistance ++ (moderately glyphosate resistant) [1, 4]: 0
plant number with resistance +++ (highly glyphosate resistant) [1, 4]: 0
plant number with resistance − (non-glyphosate resistant, withered or dead) [1, 4]: 31
% ++&+++ (percentage of moderately and highly glyphosate resistant plants in total plants observed) [1, 5]: 0.0%
plant number with resistance + (low glyphosate resistant) [1, 5]: 0
plant number with resistance ++ (moderately glyphosate resistant) [1, 5]: 0
plant number with resistance +++ (highly glyphosate resistant) [1, 5]: 0
plant number with resistance − (non-glyphosate resistant, withered or dead) [1, 5]: 31
% ++&+++ (percentage of moderately and highly glyphosate resistant plants in total plants observed) [1, 6]: 0.0%
plant number with resistance + (low glyphosate resistant) [1, 6]: 0
plant number with resistance ++ (moderately glyphosate resistant) [1, 6]: 0
plant number with resistance +++ (highly glyphosate resistant) [1, 6]: 0
plant number with resistance − (non-glyphosate resistant, withered or dead) [1, 6]: 31
glyphosate resistance of transformed rice seedlings (in words) [1]: all had no resistance
growth status of transformed Escherichia coli ([2]; medium containing 0 mM glyphosate): could grow
growth status of transformed Escherichia coli [2, 7]: could not grow
growth status of transformed Escherichia coli [2, 8]: could not grow
growth status of transformed Escherichia coli [2, 9]: could not grow

B2: R1: Oryza sativa EPSPS mutant I with A155(138)T mutation (SEQ ID NO: 6), encoding gene SEQ ID NO: 15 (protein)
chain: B1 chain with A155T
modifications: Oryza sativa EPSPS mutant with mutation A155(138)T
% ++&+++ (percentage of moderately and highly glyphosate resistant plants in total plants observed) [1, 3]: 58.1%
plant number with resistance + (low glyphosate resistant) [1, 3]: 8
plant number with resistance ++ (moderately glyphosate resistant) [1, 3]: 7
plant number with resistance +++ (highly glyphosate resistant) [1, 3]: 11
% ++&+++ (percentage of moderately and highly glyphosate resistant plants in total plants observed) [1, 4]: 0.0%
plant number with resistance + (low glyphosate resistant) [1, 4]: 5
plant number with resistance ++ (moderately glyphosate resistant) [1, 4]: 0
plant number with resistance +++ (highly glyphosate resistant) [1, 4]: 0
plant number with resistance − (non-glyphosate resistant, withered or dead) [1, 4]: 26
survival of transformed rice seedlings (in words) ([1]; 2× and 5× glyphosate doses): all of them survived
% ++&+++ (percentage of moderately and highly glyphosate resistant plants in total plants observed) [1, 5]: 0.0%
plant number with resistance + (low glyphosate resistant) [1, 5]: 1
plant number with resistance ++ (moderately glyphosate resistant) [1, 5]: 0
plant number with resistance +++ (highly glyphosate resistant) [1, 5]: 0
plant number with resistance − (non-glyphosate resistant, withered or dead) [1, 5]: 30
% ++&+++ (percentage of moderately and highly glyphosate resistant plants in total plants observed) [1, 6]: 0.0%
plant number with resistance + (low glyphosate resistant) [1, 6]: 0
plant number with resistance ++ (moderately glyphosate resistant) [1, 6]: 0
plant number with resistance +++ (highly glyphosate resistant) [1, 6]: 0
plant number with resistance − (non-glyphosate resistant, withered or dead) [1, 6]: 31
glyphosate resistance of transformed rice seedlings (in words) [1]: significantly better glyphosate resistance than that of R0
growth status of transformed Escherichia coli [2, 7]: showed bacterial plaques
growth status of transformed Escherichia coli [2, 8]: could not grow
growth status of transformed Escherichia coli [2, 9]: could not grow
